Measurements published in a protein production outcome set (Wang et al. 2014).

Assay: label from the status in PepcDB records

Row | Sequence | protein production
1 | MSLTFSILAHDPETGAIGGAAATGSLCVGGWVLRGDLNAGMSASQGAAPSTFWGEEVLQHLRDGSHPEDAVNHVTSQDSGRAYRQLAAMDLLGNAAAFTGSENQDIKGSVTFASGIASGNMLGDNSVLGAMTEAFVASDLTFERRLLAALIAAEGAGSDFRGLLSAAMLVLHPDRPPVTLRIDYHPDNPIGALEQLYQKATTGDYADWARQVPVLSDKERILDEGHHHHHH | not failed
2 | MSLTIGVIGKSVHPYWSQVEQGVKAAGKALGVDTKFFVPQKEDINAQLQMLESFIAEGVNGIAIAPSDPTAVIPTIKKALEMGIPVVTLDTDSPDSGRYVYIGTDNYQAGYTAGLIMKELLGGKGKVVIGTGSLTAMNSLQRIQGFKDAIKDSEIEIVDILNDEEDGARAVSLAEAALNAHPDLDAFFGVYAYNGPAQALVVKNAGKVGKVKIVCFDTTPDILQYVKEGVIQATMGQRPYMMGYLSVTVLYLMNKIGVQNTLMMLPKVKVDGKVDYVIDTGVDVVTPENLDEYLKKMEELGIPIKEGHHHHHH | not failed
3 | MSLTLLKGRRKVDTIKVGILGYGLSGSVFHGPLLDVLDEYQISKIMTSRTEEVKRDFPDAEVVHELEEITNDPAIELVIVTTPSGLHYEHTMACIQAGKHVVMEKPMTATAEEGETLKRAADEKGVLLSVYHNRRWDNDFLTIKKLISEGSLEDINTYQVSYNRYRPEVQARWREKEGTATGTLYDLGSHIIDQTLHLFGMPKAVTANVMAQRENAETVDYFHLTLDYGKLQAILYGGSIVPANGPRYQIHGKDSSFIKYGIDGQEDALRAGRKPEDDSWGADVPEFYGKLTTIRGSDKKTETIPSVNGSYLTYYRKIAESIREGAALPVTAEEGINVIRIIEAAMESSKEKRTIMLEHEGHHHHHH | not failed
4 | MSLTPWLSIVGISEEGWLALTPIAQQCILQADILVGSDRHFDLLPSLPGAEQWRWGSPFSATITQILERRGQSICILASGDPMCYGVGSLLAQRLPLTELQILPAPSAFSLACSRLGWALPEVETLSLCGRDPALLNALLYPGAKILALSADRSTPATIAEQLCQQGWGSSRLTVLEHLGGPKERKISEIAEHWSQPTIASLNTVAIECHARDRDLIVPPRLTGLPDAAYHHDGQLTKREVRAITLAALAPLPGQLLWDVGAGCGSIGIEWMRSDRRCRAIAIEQHPQRLQIITQNAIALGVPNLQVVAGSAPATLSGLPQPDAIFIGGGVTAPGVLDQCWQALPMGGRLVVNAVTLESEQVVLAGQQRWGGDLIRVAVQRAEPIGRFLGWKSLAPITQWTVKKTALEHHHHHH | not failed
5 | MSLTRNRTVALAIIDMQNDFVLPGAPACVEGAMGTVPVIAGLLAKARAEGWMVLHVVRAHRADGSDAEKSREHLFLEGGGLCVAGTPGAEIVAGLEPASGETVLVKTRFSAFMGTECDMLLRRRGVDTLLVSGTQYPNCIRGTAVDAFALDYDVVVVTDACSARTPGVAESNINDMRAMGITCVPLTALDDVLARREGHHHHHH | not failed
6 | MSLTRPLRADAARNRARVLEVAYDTFAAEGLGVPMDEIARRAGVGAGTVYRHFPTKQALVVAVAEDRVRRIVDHARTLLAAEGPGEALFVFMRDMVRSAAADYGLVDALVGYGLDLEVAAPGAEAAFLATLGELLAAAQRAGTVRADVDVAVIKALLVVCKVPQVYDGEVSERVVRVIEDGLRVRSSVEGHHHHHH | not failed
7 | MSLTVQDLHFKNKVNFIGGQYVPSNESDTIDILSPSTGKVIGEIPAGCKADAENALEVAQAAQKAWAKLTARTRQNMLRTFANKIRENKHILAPMLVAEQGKLLSVAEMEVDVTATFIDYGCDNALTIEGDILPSDNQDEKIYIHKVPRGVVVGITAWNFPLALAGRKIGPALITGNTMVLKPTQETPLATTELGRIAKEAGLPDGVLNVINGTGSVVGQTLCESPITKMITMTGSTVAGKQIYKTSAEYMTPVMLELGGKAPMVVMDDADLDKAAEDALWGRFANCGQVCTCVERLYVHASVYDEFMAKFLPLVKGLKVGDPMDADSQMGPKCNQREIDNIDHIVHEAIKQGATVATGGKTATVEGFEGGCWYEPTVLVDVKQDNIVVHEETFGPILPIVKVSSMEQAIEFCNDSIYGLSAYVHTQSFANINQAISDLEVGEVYINRGMGEQHQGFHNGWKQSGFGGEDGKFGLEQYLEKKTVYINEAEGHHHHHH | not failed
8 | MSLVEATLEVIGGKWKCVILCHLTHGKKRTSELKRLMPNITQKMLTQQLRELEADGVINRIVYNQVPPKVEYELSEYGRSLEGILDMLCAWGANHINRVEGHHHHHH | not failed
9 | MSLVNLTINGKHVSAPSGTSILDAAKLINIKIHNLCHLHMNEIDKLDTCASCRVCMVETERGLVPACGTVIKEGMKVQTNSAKALNARRTIVELLLSDHPQDCFVCEKNGDCELQTIAADLGVRKIRYQGSKSFAGKDTSTKSLVKDHSKCILCRRCETVCNDIQTVGALSGVNRGFNTLVSTFFNSDMVETECTFCGQCISVCPTGALTEVDNVPKLWDVLNKKEKTIVVQVAPAVRVAIGEEFGLEPGSISTGKMVAALKALGFEHVFDTNFGADFTIMEEATEFIERIQKGENLPILTSCCPAWVNFLEHNYPDKLNLASSCKSPQGMFGSIAKNYYAPKILGINPEELYVVSVMPCVAKKYEASREELSESGILDVDLSITTRELAKMIKEAAIDLPNLQDQDFDNPLGKSTGAASIFGASGGVLEAALRTSYEKITNKTLDNVNFTNVRGLKGIREASIDVDGTTVNVCIVNTLKNARKIMDKVRSGECKYHIIEVMACPGGCVGGAGQPYHHGNTEIVDRRANALYEIDRNKAIRKSHENPDLQAIYKDFFGEPNSDVAHKYLHTHYFDKSCVYGECPQECACEEAK | failed
10 | MSLVRSKAPLRLGLAGGGSDVSPYSDIYGGLILNATINLYAYCTIEETNSGRIEINAYDAQCCKSYLSMSQLEIDGEASLIKGVYNRIIRDYRLEPKSFKITTYNDAPAGSGLGTSSTMVVCILKAFIEWLSLPLGDYETSRLAYEIERKDLGLSGGKQDQYAAAFGGFNYMEFLQNDLVIVNPLKMKRWIVDELESSMVLYFTGRSRSSAAIINEQKKNTSEGNQTAIEAMHKIKQSAIDTKLALLKGDVGEFARILGEGWENKKKMAGAITNPMIQEAFDVATGAGAMAGKVSGAGGGGFIMFVVEPTRKEEVVRALNNLNGFVMPFQFIDDGAHGWKIYSTDKVQKEGHHHHHH | not failed
11 | MSLWLTHPLFLPSLIVGVTIVLWATSLLPEFITALLFFAAAMMAKIAPPEVIFGGFASSAFWLVFSGFVLGIAIRKTGLADRAAQALSARLTDSWPRMVASVVLLSYALAFVMPSNMGRIALLMPIVAAMARRAGIADGSRGWFGLALAVGFGTFQLSATILPANVPNLVMSGAAEGSYGIHLNYVPYLLLHTPVLGWLKGAVLVALICWLFPGKPHPPRDLAPLPPMSRDEKRLAWLLAVVLSLWVTESWHGVGPAWTGLAAAVITLLPRVGFINGEEFASGVNMRTCIYVAGILGLAIAVTQTGIGGAVGNALLQVMPLDKDNPFTSFLALTGITSALNFIMTANGVPALYTTFAQSFADATGFPLLSVIMIQVLGYSTPLLPYQASPIVVAMGLGKVPARAGMQLCLALAAVSYLILLPLDYAWYQLLGKL | failed
12 | MSMECVVQGIIETQHVEALEILLQGLCGVQRERLRVHELCLRSGPNLGVVSSEVRLLCDLDQPEPTWTVKHVGGAMRGAGADQISVLVRNMIESKVSKNALRMFYALGYKLDHELLKVGFAFHFQRTAHISVSVSSVNKMPKVHAIDEAVPVTPGMQIVDVTAPATSENYSEVAAAVSSFCEFLAPLVHLSKPSISTGVVPTAAAAAASLMSDGGGTTL | failed
13 | MSMELFEVHEGKAKVLVPKAKTIYDSPVFYNPRMAPNRDVVVLLLNVLKPKIVLDALSATGIRGIRFALETPAEEIWMNDINELAYELMKKNVLLNFKGTLKENAKRAIFEGEKTIVINNDDANRLMAEKHRYFHFIDLDPFGSPMEFLDTALRSVKRKGILGVTATDGAPLCGAHPKACLRKYLAVPLRGELCHEVGTRILVGVIARYAAKYDLGMEVLLAYYKDHYFRAFVKLKDGAKKGDETLENLGYVYFDEKTGRFEVEKSFLSTRPNAYGPLWLGPLKNEKVVGEMLELLVSGFEVANYREVLKLLHMLHEELDIPLFYDTHALGKRLKIEPKKLGEIIKELKSMGYEATRTHFSPTGIKTNAPYEVFVEVMRKN | failed
14 | MSMIRLTVEETNLLSIYNEGGKRALIENVNAALPYMDADMRELAKRTLSKVDALTEAEFAELPIYAADEV | failed
15 | MSMKKQFALFSTLLLLGSSMPVGAFAEGNNLVAENSSVAETTAEATTAEATETTATSETTEATEESTTETESSTESSESATTESTETSGTETTDSTTDSTSTSTTESTTDSTSTSTTESTTDSTSTSTTESSTTPTTTPSSSKEQPKPGTSTSESKQPAKPVTPTAPAEKPVEQPAASTPQPEIVPPVTNETVGLVEDDETFTVSKTKKTEEFIQEIGESARKVAKDKNLYASVMIAQAILESGSGNSKLSQKPNYNLFGIKGDYKGQSVSFITYEDNGFGNLYTVEAKFRQYPTYKESMEDYAKLLKNGLDSNKDFYHGVWKTEAKSYKEATRFLTGKYATDKDYHKKLNALIKTYDLTYYDKEKATVEPMESNFPAYNGKNYDTFNSYAWGNCTQYVYNRITQLGKRVDLTMGNGQDWGETGRARGYKVSRTPKAGAAVSFPAGVLGADNTYGHVAFVEKVFKDGSILISEMNVKGLNVVSTRTISADETHLMNYIVPKDK | failed
16 | MSMLKKTKEFFGLAPYEAEHEDAYYADEPRYEGTAAYAPEYRERDYGYAPEAPAPVAPSPAPRSYQSTIVPVELHSFEDAQVIGGAFRDGDAVVFDMSLLSREEARRIVDFAAGLCFALRGKMQKIDSVTFAVVPELSNISTSELERAARIRLEHHHHHH | not failed
17 | MSNAITMGIFWHLIGAASAACFYAPFKKVKKWSWETMWSVGGIVSWIILPWAISALLLPNFWAYYSSFSLSTRLPVFLFGAMWGIGNINYGLTMRYLGMSMGIGIAIGITLIVGTLMTPIINGNFDVLISTEGGRMTLLGVLVALIGVGIVTRAGQLKERKMGIKAEEFNLKKGLVLAVMCGIFSAGMSFAMNAAKPMHEAAAALGVDPLYVALPSYVVIMGGGAIINLGFCFIRLAKVKDLSLKADFSLAKSLIIHNVLLSTLGGLMWYLQFFFYAWGHARIPAQYDYISWMLHMSFYVLCGGIVGLVLKEWNNAGRRPVTVLSLGCVVIIVAANIVGIGMAN | failed
18 | MSNANQKITTFLMFEGKAEEAMNFYTSLFDQSEIVSISRYDENGPGKEGTVIHATFTLNGQEFMCIDSYVNHNFTFTPAMSLYVTCETEEEIDTVFHKLAQDGAILMPLGSYPFSKKFGWLNDKYGVSWQLTLAE | not failed
19 | MSNEHTRPPLPPFTRESAIEKVRLAEDGWNTREPEKIALAYTVDTQWRNRAEFANNREEARDFLTRKWKKELDYRLIKELWAFTDNRIAVRYAYEWHDDSGNWFRSYGNENWEFEADGLMHRRFACINDMPIKESERKFHWPLGRRPDDHPGLTELGLLEHHHHHH | failed
20 | MSNEMYYVQASDPAILEKGECGGAVTALFKYLLDKGIVDGVLALKKGVDVYDAIPTFVTSSEDLLSTAGSLHCAPTMWGGIIKEYLQDAKIAVPVKPCDMRAIVELAKRAQINLDNVYMIGLNCGGTVPPKTAMEMIKLFYEVDPKDVVKEEIDKGKFIIVMNDGSHKEVKMHDLEDNGYGRRVNCQRCDEKIPRKADIAAGNWGVIGEDAGKYTFMEVCTEKGKQLLEDAEKDGYIKKKSPNPKGIEIRAKVESSMLKMGEDYKNKWLEEEYPTIEEWNRQWNKCIKCYGCRDVCPVCFCRECALNADYLDSGSIPPNPIMFQGVRMSHMAFSCVNCGQCEDVCPMEIPVARIFHKVQEKTRKELGYRPGVDDEAPPALGGSCPTQ | failed
21 | MSNGGLSIDEKEGLIDKDEVMIRRMKNRERQRRYRARKRMREEEAGNDDNLSFETMGKQEEEEEEDEGLEFNGPSGYVENFVRRVYCDRNWKKEARRAHLIMNKAQDSSCESVKRKIRPHRRDWKAEARKKKT | failed
